Consider six molecules from publication PMC8439582 (Nature structural & molecular biology, 2019).

To fix the notation:
B1: Tom6 (natural protein, S. cerevisiae, UniProt P33448 1-61, looked up)
chain: MDGMFAMPGAAAGAASPQQPKSRFQAFKESPLYTIALNGAFFVAGVAFIQSPLMDMLAPQL
B2: Tom40 with a C-terminal Strep-tag (overexpressed, wild type) (natural protein, S. cerevisiae, UniProt P23644 1-387, looked up)
chain: MSAPTPLAEASQIPTIPALSPLTAKQSKGNFFSSNPISSFVVDTYKQLHSHRQSLELVNPGTVENLNKEVSRDVFLSQYFFTGLRADLNKAFSMNPAFQTSHTFSIGSQALPKYAFSALFANDNLFAQGNIDNDLSVSGRLNYGWDKKNISKVNLQISDGQPTMCQLEQDYQASDFSVNVKTLNPSFSEKGEFTGVAVASFLQSVTPQLALGLETLYSRTDGSAPGDAGVSYLTRYVSKKQDWIFSGQLQANGALIASLWRKVAQNVEAGIETTLQAGMVPITDPLMGTPIGIQPTVEGSTTIGAKYEYRQSVYRGTLDSNGKVACFLERKVLPTLSVLFCGEIDHFKNDTKIGCGLQFETAGNQELLMLQQGLDADGNPLQALPQL
B3: core TOM complex from S. cerevisiae (Tom40, Tom22, Tom5, Tom6, Tom7) (complex)
chain 1: B2 chain
chain 2: MVELTEIKDDVVQLDEPQFSRNQAIVEEKASATNNDVVDDEDDSDSDFEDEFDENETLLDRIVALKDIVPPGKRQTISNFFGFTSSFVRNAFTKSGNLAWTLTTTALLLGVPLSLSILAEQQLIEMEKTFDLQSDANNILAQGEKDAAATAN
chain 3: MFGLPQQEVSEEEKRAHQEQTEKTLKQAAYVAAFLWVSPMIWHLVKKQWK
chain 4: B1 chain
chain 5: MSFLPSFILSDESKERISKILTLTHNVAHYGWIPFVLYLGWAHTSNRPNFLNLLSPLPSV
B4: Tom22 with a C-terminal His-tag (natural protein, S. cerevisiae, UniProt P49334 1-152, looked up)
chain: B3 chain 2
B5: Tom7 (natural protein, S. cerevisiae, UniProt P53507 1-60, looked up)
chain: B3 chain 5

Read-outs that look alike come from different tables or passages of the source.

The target of series [1] is B2. Nature of the series: cryo-EM structure.
Series [2] deals with the molecule itself. Nature of the series: cryo-EM structure.
Series [3] concerns the molecule itself. In words: SEC. (In gel filtration, larger molecules generally elute earlier.)
Series [4] deals with B2. In words: cryo-EM structure. This is another data set of the same source.
Series [5] has as its target B4. In words: cryo-EM structure.

As for B1, in series [1], the binding result is on record as “binds”. Consider B2, for which the binding result in series [2] is given as “binds”. Regarding B3, the “stoichiometry N” value in series [3] turned out to be 2. In the case of B4, the binding result in series [4] is reported as “binds”. With MFGLPQQEVSEEEKRAHQEQTEKTLKQAAYVAAFLWVSPMIWHLVKKQWK (natural protein, S. cerevisiae, UniProt P80967 1-50, looked up) [Tom5], the binding result in series [5] and in series [4] was “binds” each time. For B5, the binding result in series [4] is “binds”.

As usually defined, the stoichiometry N is the number of molecules, sites or subunits per partner or assembly.
